# Results taken from the supplement of paper PMC12042874.
# ± gives the uncertainty stated by the source.
# Assay: amyloid nucleation score (Sup35N fusion, yeast selection) (log enrichment); library NNK2; higher = more nucleation; inactive = no reads after selection
# Outline: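 Nucleation score: DiMSum log enrichment of output over input reads, centred on the mode score of non-aggregating sequences. Only sequences with at least 100 input reads were kept. Reads came from Illumina sequencing of plasmid inserts before and after 7 days of growth at 30°C without adenine and uracil, in psi-negative yeast expressing Sup35N fused to peptides of 20 random codons after 24 hours of induction with 100 μM copper sulfate.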
row,Substance,amyloid nucleation score
1,PSFSFVMTLVNFRPDFLSMH,-1.2 ± 0.78
2,NTLVSVYEYFSMWGRSCRWS,0.141 ± 0.61
3,FEVYKANDIEIYYAVCEMGV,-1.34 ± 0.26
4,FINLYRVGVVCFILNKVGYF,3.71 ± 0.052
5,KKSSVPTSYLYVNENFLTVL,6.965 ± 0.054
6,YLSQWLSEWGVQRYVESYAR,0.445 ± 0.29
7,ERNSWISLIQTF,-0.693 ± 0.39
8,VGFHEDNMEVR,inactive
9,TVMGPVILTCVGIAVTSASS,3.86 ± 0.1
10,YWTNPYEMFISHYNKVFAFF,-0.436 ± 1.1
11,PSFMLHTCLFSHGYYILCTG,0.005 ± 0.3
12,HFNFCLWDNENYRNGMVWCR,0.042 ± 0.5
13,GLERNRFGRQCLGWLLWNEA,0.065 ± 1.1
14,CECETVSLTFEHWCTRGRLG,5.156 ± 0.047
15,SNVSVYPTMWGRVVHRPYTW,0.032 ± 0.39
16,QPGSGFSVAPVQVKHNTVCR,0.397 ± 0.33
17,CRSFAFTLSNMYLMM,6.52 ± 0.082
18,RLQSSRSGVKAL,0.208 ± 0.8
19,DANLLFGYFPCPCT,inactive
20,NATLNNVERFRAFRGTFLDY,inactive
21,SYHFQDLW,-0.461 ± 0.25
22,GLRTK,0.622 ± 0.41
23,IGISLSSRPCYTFFSRLRWI,-0.387 ± 0.38
24,SSSKRNSKDPSGLGLVCVE,0.795 ± 0.46
25,INHDFQTHVL,0.154 ± 0.65
26,ISFYYWLARPCLFVSKIEGA,3.54 ± 0.062

row,Substance,amyloid nucleation score
1,QSCWIFSGHSE,-1.03 ± 0.44
2,MNVGCIDQFYCMWRCNIFWP,7.678 ± 0.055
3,LWLIKARYFLELRRLESIRQ,0.208 ± 1.1
4,PVLDGHCSWGGLSTAEETDR,0.29 ± 0.29
5,AIPSRPSFLKPQPRILFTIP,-0.702 ± 0.39
6,VMRAMFSRAPFGPRNSSPLN,0.417 ± 0.37
7,LVDLWSRRGCKKLVRYVESL,0.818 ± 0.53
8,LVRSIHMVPLTWFRSNSGMF,4.13 ± 0.078
9,SSYESLCKIYLNFCQTD,6.761 ± 0.059
10,TISLDM,-0.033 ± 0.25
11,TRAFLIIRYVKLDTNFVI,2.19 ± 0.064
12,DTLVHMLRYFGGTQPWYM,-0.183 ± 0.53
13,TMYFWLMSLVWLLSVSFRAW,2.54 ± 0.1
14,VYMGEELVLVISVKDR,inactive
15,TCSRDVFGWTVLGTGLPPLR,0.878 ± 0.32
16,LSTLLFRIYGLPS,-2.12 ± 0.49
17,RQANFAQDPTSIVPVYMYLR,2.35 ± 0.074
18,YNCCVKISVSM,5.481 ± 0.042
19,MFLKVSLVGNMVSEKPGRSS,3.21 ± 0.15
20,SFIWKLYMLHWNWRSTEEGE,-0.17 ± 0.65
21,ELRSLAGIVSWLSLRYPPTE,2.42 ± 0.23
22,ITLSSS,0.853 ± 0.2
23,RLSRCL,4.23 ± 0.055
24,ALYLMTFPSRDLIRACEEA,0.678 ± 0.56
25,PVWGSTCWFDVTWVRFKLFW,2.61 ± 0.11
26,VILYGFNKVMECSTYVVV,-0.804 ± 1.1

row,Substance,amyloid nucleation score
1,PICLPVNMLVFKSMNSN,2.28 ± 0.073
2,VLVKSLMRENVPCPPLGTLS,0.942 ± 0.36
3,SFAMSRHLQPGGNEQFRM,1.16 ± 0.57
4,RPCQGLDTSVRCVLMMRYYR,4.36 ± 0.046
5,LYKRMYECRRYFLMWNYRGF,inactive
6,RMDTGNLYVFLMKCFNMAYA,5.2 ± 0.091
7,KLVISAFPPIRNMVYTKCSK,-0.446 ± 1.1
8,ELNMRAYRKMSKGSYSKNSG,-0.462 ± 0.76
9,SDLAWGERHLLEGLLVRPTT,0.508 ± 0.29
10,SLHVTGWFTSDVVFNLWVDV,-0.145 ± 0.48
11,DSCRGMVSFCG,-0.399 ± 0.35
12,NYREMLWSDIRVVS,0.004 ± 1.1
13,HTYNLSKR,-1.1 ± 0.62
14,KSINSFYKRIDVVWGMRSQS,-0.984 ± 0.33
15,LIIDSGYPSGS,0.458 ± 0.8
16,PDVTGKELHF,3.42 ± 0.071
17,LEDGRTSLGMTQRYSIRNIC,-1.11 ± 0.55
18,VFNILFSM,9.098 ± 0.06
19,MLKMS,1.85 ± 0.15
20,FSIKPLGQKDIR,5.47 ± 0.073
21,ILVNLVVVIKSSYRLSKCRF,-0.67 ± 1.1
22,RTYILYSDFGCRRCDY,3.56 ± 0.1
23,VRWFCSVISF,2.39 ± 0.14
24,DAMRVASEHIIVTAAAS,2.72 ± 0.12
25,ETYWWRQRLNSRLAFNWH,5.16 ± 0.098
26,CPDHNGRFGSWVGEYHVGLS,1.43 ± 0.17

row,Substance,amyloid nucleation score
1,GLCKTVSWRNSSLEKDLFGR,-0.813 ± 0.78
2,LSLLSFGISASFVV,-1.18 ± 0.41
3,YSQGDGL,-0.038 ± 0.65
4,GHPSIDAQTPV,1.39 ± 0.47
5,NLWFSHDITYHYTYFDRSRA,4.52 ± 0.087
6,RITIAQHTDSKGDA,-0.01 ± 0.61
7,VCYNT,0.833 ± 0.74
8,VWCAYWKWLNLSRFNEITAR,-0.202 ± 0.23
9,SHSVKVMFNGLRVRL,-0.216 ± 0.63
10,VWQSYRFEEYFCICFQLASA,7.923 ± 0.031
11,EKICRWHTDRGAFN,inactive
12,QLRRFERMLSLVM,1.31 ± 0.3
13,QCLIDWSFTFLLNVVLDYFY,inactive
14,TRVNNGSTVHNKMLTS,0.634 ± 0.74
15,YSGRSAWLMLCGRPVRR,1.11 ± 0.33
16,VLRMRGCW,6.738 ± 0.049
17,DRHRFIHFYAQGERKLSRTM,-0.358 ± 0.79
18,GINFVF,-0.287 ± 0.79
19,QLENMCFFSPLQTYMLDRNW,-1.47 ± 0.41
20,YGFENLVSILKFVQVNSKCG,1.38 ± 0.085
21,MTIQSYGVILLLISVYWLSF,0.584 ± 0.66
22,QRVMHTYYVS,0.073 ± 0.24
23,LERFEH,2.01 ± 0.24
24,FLSDATAYH,inactive
25,KFNGPKIVYFISTSMVLLVS,-0.406 ± 1.1
26,MIRKVYYSF,-0.77 ± 1

row,Substance,amyloid nucleation score
1,ASGLLPDLDVEKEDRCGIYE,0.859 ± 0.52
2,LTRCPYGSCLNWERWVGYMM,1.93 ± 0.1
3,LMSIVVKVVDSTIIIKCVFS,-0.667 ± 0.76
4,IRPINGSWGVSTNCKVYDYV,-0.011 ± 1.1
5,LYWSFYNYWATHVGFWHKKA,-1.87 ± 0.64
6,FNVLIACWGYKDNFNVYSCE,5.844 ± 0.035
7,HCSFG,2.32 ± 0.12
8,SKIVYFSYYTQM,6.775 ± 0.049
9,MLVSGSSLEW,0.264 ± 0.42
10,HMHQPSSPHLLLCV,-0.47 ± 0.46
11,LVFVAGRILMMIFFVSGLAI,2.59 ± 0.09
12,QLVMCGHEDQYIRSDRSERN,-0.112 ± 0.25
13,YLNGSSTTVSYRCWAMACSN,-0.448 ± 0.76
14,QEAALG,1.27 ± 0.35
15,NKRELNIVV,0.701 ± 0.43
16,GWFMNCTLVVKVTDTEIGLY,inactive
17,KCYLVLRG,3.08 ± 0.17
18,SWTCHGGNLYS,0.222 ± 0.8
19,RAGFSSAPLVEGRSLTQRCR,inactive
20,ILISRIFIFDNYMIYLCCCG,-0.762 ± 0.79
21,RHICIFMNRMSYMDLWPALL,inactive
22,EDLWWVQLSNLKDSVDEYCR,0.007 ± 0.21
23,QVLCIVLDTSMIGTKACLGV,0.325 ± 0.57
24,ILWWFRVTAHAWEDETGWMW,0.098 ± 0.23
